According to the supplement of paper PMC7125110:
± gives the standard error. Fewer inactive variants are shown than the library holds.

B1: glmS ribozyme (parent)
chain: AUAAAAGCGCCAGAACUACAGAAAUGUAGUUGACGAGGAGGAGGUUUAUCGAAUUUUCGGCGGAUGCCUCCAAA

Key:
Settings in all cases: with glucosamine-6-phosphate
[1] = variants of: B1; test: self-cleavage kobs at 640 uM GlcN6P; higher = faster cleavage; RNA array
How it was run: (§1)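 Ribozyme variants carrying barcodes were transcribed in situ on sequenced MiSeq chips by E. coli RNA polymerase and tracked at 37 °C with a hybridised Cy3 probe. They were exposed to 40 μM to 10 mM glucosamine-6-phosphate in HEPES/KCl/Mg(OAc)2 buffer. kobs came from exponential decay fits of normalised per-tile medians, and kcat and KM from weighted Michaelis–Menten fits.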

[2] = variants of: B1; test: self-cleavage kobs at 2500 uM GlcN6P; higher = faster cleavage; RNA array
How it was run: as §1

[3] = variants of: B1; test: self-cleavage kobs at 10000 uM GlcN6P; higher = faster cleavage; RNA array
How it was run: as §1

Variant	self-cleavage kobs at 640 uM GlcN6P [1]	self-cleavage kobs at 2500 uM GlcN6P [2]	self-cleavage kobs at 10000 uM GlcN6P [3]
G38C C50G C67G	6.94e-05 ± 1.3e-05 s⁻¹	0.000141 ± 4.2e-05 s⁻¹	–
G37U G38U C68A	0.00155 ± 0.00045 s⁻¹	–	–
A6C G38A A52U C70U	< 1e-05 s⁻¹	–	–
U47A A52U A64G	7.01e-05 ± 1.7e-05 s⁻¹	0.000177 ± 5.4e-05 s⁻¹	–
G9A C61G C68A	< 1e-05 s⁻¹	< 1e-05 s⁻¹	–
A15C C16G U55C C61G	< 1e-05 s⁻¹	–	–
A14C U47C	0.000137 ± 2.2e-05 s⁻¹	–	0.00052 ± 0.00018 s⁻¹
G32A G37C A42C	< 1e-05 s⁻¹	–	–
G9U G29U C34A G41U U57G G59A	< 1e-05 s⁻¹	< 1e-05 s⁻¹	–
C16U C61A G63U	< 1e-05 s⁻¹	–	–
A14G G35C A48U	< 1e-05 s⁻¹	–	–
C16G G59C C61U	< 1e-05 s⁻¹	< 1e-05 s⁻¹	–
G13C U30A G41U G63A A64C	< 1e-05 s⁻¹	< 1e-05 s⁻¹	–
A6G A15C C34A A36U	< 1e-05 s⁻¹	< 1e-05 s⁻¹	–
C10A G38U A39G	< 1e-05 s⁻¹	< 1e-05 s⁻¹	–
C8A U47C G51A	< 1e-05 s⁻¹	< 1e-05 s⁻¹	–

Variant	self-cleavage kobs at 640 uM GlcN6P [1]	self-cleavage kobs at 2500 uM GlcN6P [2]	self-cleavage kobs at 10000 uM GlcN6P [3]
A12U C16U G63U G66C	< 1e-05 s⁻¹	< 1e-05 s⁻¹	–
G59U G62A U65A	< 1e-05 s⁻¹	< 1e-05 s⁻¹	–
C11A A36G C50A A64C C68A	< 1e-05 s⁻¹	–	–
A42U C61G G66A	< 1e-05 s⁻¹	–	–
G9U U30G C68U	< 1e-05 s⁻¹	–	–
G51A G63U C70G	7.13e-05 ± 2.7e-05 s⁻¹	–	–
G7C G29C C67G	< 1e-05 s⁻¹	< 1e-05 s⁻¹	–
G51A A53G C71A	< 1e-05 s⁻¹	–	–
A14U C34U A52G	< 1e-05 s⁻¹	< 1e-05 s⁻¹	< 1e-05 s⁻¹
G7A C34U G35U G37A G40A	< 1e-05 s⁻¹	< 1e-05 s⁻¹	–
C8G C50U A53U U55G	< 1e-05 s⁻¹	–	–
C34U G41C A52U G60C U69G	< 1e-05 s⁻¹	–	< 1e-05 s⁻¹
A12C A64C G66C	< 1e-05 s⁻¹	–	< 1e-05 s⁻¹
U31C A36C U45G U65G C71U	< 1e-05 s⁻¹	< 1e-05 s⁻¹	–
G38C U46C G59U U65C C67A	< 1e-05 s⁻¹	< 1e-05 s⁻¹	–
C8A A15G A36C	< 1e-05 s⁻¹	–	–
